In test [1] the target is T1, recombinant soluble hTNFSF13b (native) (human, UniProt Q9Y275 134-285).
T1 construct: also called huTNFSF13b; Human TNFSF13b
As to the kind of experiment: SPR (BIAcore 2000), antibody captured by anti-human IgG Fc, hTNFSF13b from 50 nM, Langmuir 1:1 model. For orientation: In SPR one partner is held on a chip, and binding of the other changes the refractive index at the surface.

A further test concerns the target T2, EGFR-AP fusion protein (UniProt P00533 25-645).
T2 construct: Immobilized on the BIAcore sensor chip; construct not described
Nature of the test: SPR (BIAcore), EGFR-AP immobilized, antibody 1.5 nM to 100 nM.

This passage reports Kd, koff and kon results from patent US20140341888A1 (CORNING, published 2014).

T1 sequence (Q9Y275 134-285 limits assumed): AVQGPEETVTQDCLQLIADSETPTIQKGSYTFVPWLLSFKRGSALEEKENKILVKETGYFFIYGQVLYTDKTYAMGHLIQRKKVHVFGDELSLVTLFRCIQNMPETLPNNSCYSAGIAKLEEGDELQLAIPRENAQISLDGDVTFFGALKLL

B1: 4A5-3.1.1-B4 (antibody, V domains shown)
VH: QVQLQQWGAGLLKPSETLSLTCAVYGGSFSGYYWSWIRQPPGKGLEWIGEINHSGSTNYNPSLKSRVTISVDTSKNQFSLKLSSVTAADTAVYYCARGYYDILTGYYYYFDYWGQGTLVTVSS
VL: EIVLTQSPATLSLSPGERATLSCRASQSVSRYLAWYQQKPGQAPRLLIYDASNRATGIPARFSGSGSGTDSTLTISSLEPEDFAVYYCQQRSNWPRTFGQGTKVEIKR
Take B1: the Kd – broadly, the equilibrium constant for the complex coming apart – in test [1] is 38 µM.

B2: IMC-11F8 IgG (antibody, V domains shown)
VH: QVQLQESGPGLVKPSQTLSLTCTVSGGSISSGDYYWSWIRQPPGKGLEWIGYIYYSGSTDYNPSLKSRVTMSVDTSKNQFSLKVNSVTAADTAVYYCARVSIFGVGTFDYWGQGTLVTVSS
VL: EIVMTQSPATLSLSPGERATLSCRASQSVSSYLAWYQQKPGQAPRLLIYDASNRATGIPARFSGSGSGTDFTLTISSLEPEDFAVYYCHQYGSTPLTFGGGTKAEIK
With B2, in the test with EGFR-AP fusion protein, the affinity, expressed as Kd, was 0.00032 µM; the koff (in general, the first-order rate constant of dissociation) is 0.00058 s⁻¹; the kon (as a rule, the second-order rate constant of association) was found to be 1.86e+06 M⁻¹ s⁻¹.
